Results from the supplement of paper PMC10567573.

B1: HSP90AB1 (parent)
chain: QVANSAFVERVRKRGFEVVYMTEP
B2: C1orf55 (parent)
chain: FTSPDYQQQCHEMAERLEDSVLKG

Variants of: B1
Experiment: protein stability index of a GFP-peptide fusion (GPS, HEK-293T) (PSI 1-6); higher = more stable
Conditions: c terminus: a fixed tail appended
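Note: lentivirally expressed fusions sorted by FACS into six bins by GFP to DsRed ratio, PSI derived from sequencing read proportions per bin multiplied by bin number.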

Variant	protein stability index
QVANSAFAERVRKRGFEVVYMTEP [V8A]	2.33
QVANSAFCERVRKRGFEVVYMTEP [V8C]	2.92
QVANSAFNERVRKRGFEVVYMTEP [V8N]	2.8
QVANSAFDERVRKRGFEVVYMTEP [V8D]	3.46
QVANSDFVERVRKRGFEVVYMTEP [A6D]	2.67
QVANSKFVERVRKRGFEVVYMTEP [A6K]	2.32
QVANSWFVERVRKRGFEVVYMTEP [A6W]	1.55
QVANSCFVERVRKRGFEVVYMTEP [A6C]	1.55
QVANSPFVERVRKRGFEVVYMTEP [A6P]	2.81
QVANSAFVERVRKRGFEVVYITEP [M21I]	1.98
QVANNAFVERVRKRGFEVVYMTEP [S5N]	2.26
RVANSAFVERVRKRGFEVVYMTEP [Q1R]	1.71
EVANSAFVERVRKRGFEVVYMTEP [Q1E]	1.91
NVANSAFVERVRKRGFEVVYMTEP [Q1N]	2.11
GVANSAFVERVRKRGFEVVYMTEP [Q1G]	2.33
QVANSAFVEDVRKRGFEVVYMTEP [R10D]	2.58
QVANSAFVEHVRKRGFEVVYMTEP [R10H]	2.33
QVANSAFVEIVRKRGFEVVYMTEP [R10I]	1.94
QVANSAFVEGVRKRGFEVVYMTEP [R10G]	2.17
QVANSAFVEMVRKRGFEVVYMTEP [R10M]	1.54
QVANSAEVERVRKRGFEVVYMTEP [F7E]	3.48
QVANSAFVERVLKRGFEVVYMTEP [R12L]	2.1
QVANSAFVERVTKRGFEVVYMTEP [R12T]	2.09
QVANSAFVERVQKRGFEVVYMTEP [R12Q]	2.35
QVANSAFVERVPKRGFEVVYMTEP [R12P]	2.74
QVANSAFVERVWKRGFEVVYMTEP [R12W]	1.6

Variant	protein stability index
QVANSAFVERVNKRGFEVVYMTEP [R12N]	2.63
QVANSAFVERVAKRGFEVVYMTEP [R12A]	2.18
QVANSAFVERVCKRGFEVVYMTEP [R12C]	1.98
QVANSAFVERVRKRGFEVVYMTNP [E23N]	1.83
QVANSAFVERVRKRGFEVVYMTAP [E23A]	2.88
QVANSAFVERVRKRGFEVVYMTQP [E23Q]	1.9
QVANSAFVERVRKRGFEVEYMTEP [V19E]	3.43
QVANSAFVERVRKRGFEVRYMTEP [V19R]	2.57
QVANSAFVERVRKRGFEVTYMTEP [V19T]	2.93
QVANSAFVERVRKRGFEVMYMTEP [V19M]	1.84
QVANSAFVERRRKRGFEVVYMTEP [V11R]	2.43
QVANSAFVERMRKRGFEVVYMTEP [V11M]	2.11
QVANSAFVERVRKRGFEVVYMTEC [P24C]	2.2
QVANSAFVERVRKRGFEVVYMTEF [P24F]	1.63
QVANSAFVERVRKRGFEVVYMTED [P24D]	3.18
QVANSAFVERVRIRGFEVVYMTEP [K13I]	1.51
QVANSAFVERVRTRGFEVVYMTEP [K13T]	2.35
QVANSAFVERVRHRGFEVVYMTEP [K13H]	1.95
QVANSAFVERVRMRGFEVVYMTEP [K13M]	1.53
QVAESAFVERVRKRGFEVVYMTEP [N4E]	2.81
QVAASAFVERVRKRGFEVVYMTEP [N4A]	2.02
QQANSAFVERVRKRGFEVVYMTEP [V2Q]	2.58
QNANSAFVERVRKRGFEVVYMTEP [V2N]	2.75
QPANSAFVERVRKRGFEVVYMTEP [V2P]	2.85
QTANSAFVERVRKRGFEVVYMTEP [V2T]	2.41
QWANSAFVERVRKRGFEVVYMTEP [V2W]	1.94

Variant	protein stability index
QVANSAFVERVRKRGIEVVYMTEP [F16I]	2.61
QVANSAFVERVRKRGNEVVYMTEP [F16N]	3.3
QVANSAFVERVRKRGHEVVYMTEP [F16H]	3.05
QVANSAFVERVRKRGFESVYMTEP [V18S]	2.57
QVANSAFVERVRKRGFELVYMTEP [V18L]	2.58
QVANSAFVERVRKRGFQVVYMTEP [E17Q]	1.51
QVANSAFVERVRKRGFSVVYMTEP [E17S]	2.49
QVANSAFVERVRKRGFIVVYMTEP [E17I]	2.75
QVANSAFVERVRKRGFEVVYMWEP [T22W]	1.55
QVANSAFVERVRKRGFEVVYMYEP [T22Y]	1.95
QVTNSAFVERVRKRGFEVVYMTEP [A3T]	2.93
QVYNSAFVERVRKRGFEVVYMTEP [A3Y]	2.35
QVLNSAFVERVRKRGFEVVYMTEP [A3L]	1.85
QVVNSAFVERVRKRGFEVVYMTEP [A3V]	2.43
QVANSAFVERVRKYGFEVVYMTEP [R14Y]	2.21
QVANSAFVERVRKFGFEVVYMTEP [R14F]	1.92
QVANSAFVERVRKMGFEVVYMTEP [R14M]	1.6
QVANSAFVERVRKCGFEVVYMTEP [R14C]	1.36
QVANSAFVERVRKRGFEVVTMTEP [Y20T]	2.69
QVANSAFVKRVRKRGFEVVYMTEP [E9K]	2.26
QVANSAFVARVRKRGFEVVYMTEP [E9A]	1.36
QVANSAFVHRVRKRGFEVVYMTEP [E9H]	2.27
QVANSAFVWRVRKRGFEVVYMTEP [E9W]	3.56
QVANSAFVERVRKRVFEVVYMTEP [G15V]	2.19
QVANSAFVERVRKRHFEVVYMTEP [G15H]	1.66

Variants of: B2
Experiment: as above
Conditions: c terminus: a fixed tail appended

Variant	protein stability index
GTSPDYQQQCHEMAERLEDSVLKG [F1G]	4.87
NTSPDYQQQCHEMAERLEDSVLKG [F1N]	4.84
ATSPDYQQQCHEMAERLEDSVLKG [F1A]	4.88
CTSPDYQQQCHEMAERLEDSVLKG [F1C]	4.43
MTSPDYQQQCHEMAERLEDSVLKG [F1M]	4.55
WTSPDYQQQCHEMAERLEDSVLKG [F1W]	3.75
ITSPDYQQQCHEMAERLEDSVLKG [F1I]	4.68
KTSPDYQQQCHEMAERLEDSVLKG [F1K]	4.64
QTSPDYQQQCHEMAERLEDSVLKG [F1Q]	4.35
LTSPDYQQQCHEMAERLEDSVLKG [F1L]	5
RTSPDYQQQCHEMAERLEDSVLKG [F1R]	3.98
TTSPDYQQQCHEMAERLEDSVLKG [F1T]	4.88
PTSPDYQQQCHEMAERLEDSVLKG [F1P]	5.18
VTSPDYQQQCHEMAERLEDSVLKG [F1V]	4.07
DTSPDYQQQCHEMAERLEDSVLKG [F1D]	4.84
ETSPDYQQQCHEMAERLEDSVLKG [F1E]	4.78
STSPDYQQQCHEMAERLEDSVLKG [F1S]	4.31
HTSPDYQQQCHEMAERLEDSVLKG [F1H]	4.59
YTSPDYQQQCHEMAERLEDSVLKG [F1Y]	1.94
FTSDDYQQQCHEMAERLEDSVLKG [P4D]	4.06
FTSRDYQQQCHEMAERLEDSVLKG [P4R]	2.8
FTSYDYQQQCHEMAERLEDSVLKG [P4Y]	1.98
FTSMDYQQQCHEMAERLEDSVLKG [P4M]	2.23

Variant	protein stability index
FTSKDYQQQCHEMAERLEDSVLKG [P4K]	2.41
FTSCDYQQQCHEMAERLEDSVLKG [P4C]	2.87
FTSWDYQQQCHEMAERLEDSVLKG [P4W]	2.61
FTSEDYQQQCHEMAERLEDSVLKG [P4E]	4.3
FTSLDYQQQCHEMAERLEDSVLKG [P4L]	2.18
FTSHDYQQQCHEMAERLEDSVLKG [P4H]	2.63
FTSFDYQQQCHEMAERLEDSVLKG [P4F]	2.6
FTSQDYQQQCHEMAERLEDSVLKG [P4Q]	2.62
FTSSDYQQQCHEMAERLEDSVLKG [P4S]	2.26
FTSGDYQQQCHEMAERLEDSVLKG [P4G]	2.06
FTSADYQQQCHEMAERLEDSVLKG [P4A]	2.37
FTSTDYQQQCHEMAERLEDSVLKG [P4T]	2.06
FTSIDYQQQCHEMAERLEDSVLKG [P4I]	2.37
FTSVDYQQQCHEMAERLEDSVLKG [P4V]	2.09
FTSNDYQQQCHEMAERLEDSVLKG [P4N]	2.52
FMSPDYQQQCHEMAERLEDSVLKG [T2M]	3.79
FGSPDYQQQCHEMAERLEDSVLKG [T2G]	3.24
FDSPDYQQQCHEMAERLEDSVLKG [T2D]	4.63
FFSPDYQQQCHEMAERLEDSVLKG [T2F]	3.69
FRSPDYQQQCHEMAERLEDSVLKG [T2R]	4.16
FISPDYQQQCHEMAERLEDSVLKG [T2I]	2.14
FKSPDYQQQCHEMAERLEDSVLKG [T2K]	3.92
FWSPDYQQQCHEMAERLEDSVLKG [T2W]	3.04

Variant	protein stability index
FESPDYQQQCHEMAERLEDSVLKG [T2E]	4.24
FASPDYQQQCHEMAERLEDSVLKG [T2A]	2.62
FYSPDYQQQCHEMAERLEDSVLKG [T2Y]	2.88
FCSPDYQQQCHEMAERLEDSVLKG [T2C]	1.56
FLSPDYQQQCHEMAERLEDSVLKG [T2L]	3.48
FQSPDYQQQCHEMAERLEDSVLKG [T2Q]	2.87
FNSPDYQQQCHEMAERLEDSVLKG [T2N]	4.04
FHSPDYQQQCHEMAERLEDSVLKG [T2H]	2.25
FVSPDYQQQCHEMAERLEDSVLKG [T2V]	2.45
FSSPDYQQQCHEMAERLEDSVLKG [T2S]	3.39
FPSPDYQQQCHEMAERLEDSVLKG [T2P]	3.77
FTSPMYQQQCHEMAERLEDSVLKG [D5M]	2.12
FTSPRYQQQCHEMAERLEDSVLKG [D5R]	2.03
FTSPVYQQQCHEMAERLEDSVLKG [D5V]	1.86
FTSPWYQQQCHEMAERLEDSVLKG [D5W]	2.62
FTSPEYQQQCHEMAERLEDSVLKG [D5E]	2.41
FTSPIYQQQCHEMAERLEDSVLKG [D5I]	2.15
FTSPKYQQQCHEMAERLEDSVLKG [D5K]	2.57
FTSPHYQQQCHEMAERLEDSVLKG [D5H]	2.03
FTSPQYQQQCHEMAERLEDSVLKG [D5Q]	2.29
FTSPYYQQQCHEMAERLEDSVLKG [D5Y]	2.28
FTSPTYQQQCHEMAERLEDSVLKG [D5T]	2.17
FTSPLYQQQCHEMAERLEDSVLKG [D5L]	2.33

Variant	protein stability index
FTSPGYQQQCHEMAERLEDSVLKG [D5G]	1.8
FTSPPYQQQCHEMAERLEDSVLKG [D5P]	2.94
FTSPNYQQQCHEMAERLEDSVLKG [D5N]	2.47
FTSPCYQQQCHEMAERLEDSVLKG [D5C]	3.59
FTSPAYQQQCHEMAERLEDSVLKG [D5A]	2.15
FTSPFYQQQCHEMAERLEDSVLKG [D5F]	2.09
FTSPSYQQQCHEMAERLEDSVLKG [D5S]	1.81
FTLPDYQQQCHEMAERLEDSVLKG [S3L]	3.23
FTYPDYQQQCHEMAERLEDSVLKG [S3Y]	3.13
FTEPDYQQQCHEMAERLEDSVLKG [S3E]	4.12
FTPPDYQQQCHEMAERLEDSVLKG [S3P]	3.61
FTQPDYQQQCHEMAERLEDSVLKG [S3Q]	3.1
FTKPDYQQQCHEMAERLEDSVLKG [S3K]	3.47
FTRPDYQQQCHEMAERLEDSVLKG [S3R]	2.54
FTVPDYQQQCHEMAERLEDSVLKG [S3V]	3.92
FTGPDYQQQCHEMAERLEDSVLKG [S3G]	1.76
FTIPDYQQQCHEMAERLEDSVLKG [S3I]	3.73
FTNPDYQQQCHEMAERLEDSVLKG [S3N]	2.75
FTDPDYQQQCHEMAERLEDSVLKG [S3D]	3.25
FTWPDYQQQCHEMAERLEDSVLKG [S3W]	2.24
FTCPDYQQQCHEMAERLEDSVLKG [S3C]	2.83
FTHPDYQQQCHEMAERLEDSVLKG [S3H]	3.34
FTMPDYQQQCHEMAERLEDSVLKG [S3M]	2.96

Variant	protein stability index
FTFPDYQQQCHEMAERLEDSVLKG [S3F]	3.06
FTAPDYQQQCHEMAERLEDSVLKG [S3A]	2.89
FTTPDYQQQCHEMAERLEDSVLKG [S3T]	2.52
FTSPDFQQQCHEMAERLEDSVLKG [Y6F]	1.84
FTSPDDQQQCHEMAERLEDSVLKG [Y6D]	4.95
FTSPDEQQQCHEMAERLEDSVLKG [Y6E]	5.43
FTSPDRQQQCHEMAERLEDSVLKG [Y6R]	4.24
FTSPDSQQQCHEMAERLEDSVLKG [Y6S]	4.63
FTSPDNQQQCHEMAERLEDSVLKG [Y6N]	4.27
FTSPDAQQQCHEMAERLEDSVLKG [Y6A]	4.56
FTSPDKQQQCHEMAERLEDSVLKG [Y6K]	4.44
FTSPDMQQQCHEMAERLEDSVLKG [Y6M]	3.94
FTSPDCQQQCHEMAERLEDSVLKG [Y6C]	4.51
FTSPDIQQQCHEMAERLEDSVLKG [Y6I]	3.94
FTSPDLQQQCHEMAERLEDSVLKG [Y6L]	4.3
FTSPDGQQQCHEMAERLEDSVLKG [Y6G]	4.76
FTSPDHQQQCHEMAERLEDSVLKG [Y6H]	4.48
FTSPDPQQQCHEMAERLEDSVLKG [Y6P]	4.14
FTSPDQQQQCHEMAERLEDSVLKG [Y6Q]	4.78
